The results in this text go back to publication PMC8724117.

The experiment deals with dual anticoagulant and antiplatelet (APAC) agent (human) (UniProt P02768). The experiment in a line: atomic force microscopy (tapping mode AFM); APAC alone (1:1000 and 1:20,000 dilution of stock) in PBS with 20 mM MgCl2, drop-casted on mica, imaged in air; volume distribution of 340 molecules evaluated with Gwyddion.

The stoichiometry N is the number of molecules, sites or subunits per partner or assembly.

Take “dual anticoagulant and antiplatelet (APAC) agent (from UniProt P02768 25-609)”: the stoichiometry N worked out at 3.
